# In US20140370516, “DIAGNOSIS OF TUBERCULOSIS” (CSIR, published 2014):
# T1: EsxGH heterodimer (ESX-3 secretion system) (UniProt O53692;P9WNK3 O53692:2-97,P9WNK3:1-96)
# T1 sequence 1: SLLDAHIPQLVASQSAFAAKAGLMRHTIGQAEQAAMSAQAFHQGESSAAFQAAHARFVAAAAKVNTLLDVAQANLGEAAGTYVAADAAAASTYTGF
# T1 sequence 2: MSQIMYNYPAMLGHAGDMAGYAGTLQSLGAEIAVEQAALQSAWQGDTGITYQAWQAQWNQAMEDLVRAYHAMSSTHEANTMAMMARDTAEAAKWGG
# Tests used:
# CFP-10 (monomer) [1] = molecular target: T2, CFP-10 (monomer) (Mycobacterium tuberculosis, UniProt P9WNK5 P9WNK5:2-100); test: SPR; CFP-10 immobilised on CM5 chip, BIAcore 3000; conditions: label: biotin; two predicted stem-loops
# Method: (§1) FIG. 7 illustrates kinetic studies of 5 of the best aptamers. CFP-10 attached to a CM5 chip was used to capture the respective anti-CFP-10.ESAT-6 aptamers. The respective aptamers were injected at different concentrations at a flow rate of 10 μl/min for 5 minutes and allowed to dissociate for 10 minutes;
# (§2) To determine the binding affinity of aptamers to the M.tb antigens, all four flow cells on a CM5 chip (BIAcore, Separations Scientific) were activated with EDC:NHS (BIAcore, Separations Scientific). CFP-10 was bound to three of the four flow cells by injecting 50 μl of 50 μg/ml CFP-10 over them. Ethanolamine (BIAcore, Separations Scientific) was then injected over all four flow cells to quench any remaining active sites. Partially bound or unbound protein was removed by a wash with 10 μl of a 10 mM NaOH solution. Different concentrations of the respective aptamers (0 nM, 31 nM, 62 nM, 125 nM, 250 nM, and 500 nM) were randomly injected over all four flow cells at a flow rate of 10 μl/min for 5 minutes. The respective aptamers, were then allowed to dissociate for 10 minutes. […] The evaluation was done using BiaEvaluation Software (BIAcore) to determine the KD values for each flow cell. The average dissociation constant was then determined.
# ESAT-6 (monomer) = ESAT-6 (monomer) (Mycobacterium tuberculosis, UniProt P9WNK7 P9WNK7:2-95); test: ELONA; conditions: label: biotin
# Method: (§3) For each binding assay, 96 well micro-titre plates (Corning, Adcock Ingram) were coated with the CFP-10.ESAT-6 heterodimer in a 10 mM NaHCO₃ buffer pH 8.5 (Sigma) and left overnight at 4° C. The plates were then washed with 1× phosphate buffered saline containing 0.005% Tween 20 (PBS-T) pH7 (Sigma) and blocked with a 5% fat free milk solution for 1 hour at 4° C. The plates were then washed 3 times with a 1×PBS after which 150 nM biotinylated aptamer was added and incubated for 2 hours at room temperature. This was followed by three wash steps with 1×PBS-T and the addition to HRP-conjugated streptavidin (diluted 1:10000 in 1×PBS-T) and incubated for two hours at 37° C. The plates were then washed four more times with 1×PBS-T, after which a final 3,3′,5,5′-tetramethylbenzidine (TMB) detection substrate (Separations) was added. […] The reaction was stopped with a 2 M sulphuric acid solution (Merck), resulting in a colour change from blue to yellow. The plates were read on the MultiSkan Go plate reader (ThermoScientific, AEC-Amersham) at a wavelength of 450 nm. […] Each aptamer was done in triplicate and the repeats were averaged and the standard deviation calculated. Each aptamer was tested twice in triplicate to ensure accuracy. The aptamers were then compared to the aptamer alone control using a Student t-test statistical analysis to obtain the p value for significance.
# (§4) Selected ssDNA aptamers were tested for binding specificity to the ESAT-6 and CFP-10 monomers. The aptamers were tested for binding using ELONA to CFP-10, ESAT-6, CFP-10.ESAT-6 heterodimer, a CFP-10.ESAT-6 related protein in the ESX3 secretion system (EsxGH complex) and a HIV surface glycoprotein (gp120). EsxGH is an ESAT-6 family related protein that is encoded and secreted by the ESX-3 secretion system and gp120 is a HIV glycoprotein which is unrelated to the Mtb antigens.
# [2] = molecular target: T1, EsxGH heterodimer (ESX-3 secretion …); test: ELONA; conditions: label: biotin
# Method: as §3, §4
# CFP-10 (monomer) [3] = molecular target: T2, CFP-10 (monomer); test: ELONA, 150 nM aptamer; conditions: label: biotin
# [4] = molecular target: T3, CFP-10.ESAT-6 heterodimer (Mycobacterium tuberculosis, UniProt P9WNK5;P9WNK7 P9WNK5:2-100,P9WNK7:2-95); test: ELONA, 150 nM aptamer; binding abrogated by anti-ESAT-6 mAb; conditions: label: biotin
# Method: as §3, with “The assay was modified from an ELISA protocols for determination of aptamer-protein interactions and has been termed an ELONA. Unique aptamer clones identified by sequencing were tested for their individual binding characteristic to the CFP-10.ESAT-6 heterodimer using an ELONA. Each ssDNA aptamer was prepared using the exonuclease method as described above with minor modifications, in that all aptamers were prepared with the biotinylated forward primer. For” for “For”
# The antibody competition binding was done using the ELONA method described above with minor modifications.
# [5] = molecular target: T3, CFP-10.ESAT-6 heterodimer; test: ELONA; slightly higher affinity than 90-mer (P<0.05); conditions: two predicted stem-loops
# CFP-10 (monomer) [6] = molecular target: T2, CFP-10 (monomer); test: ELONA; affinity comparable to 90-mer; conditions: two predicted stem-loops
# CFP-10 (monomer) [7] = molecular target: T2, CFP-10 (monomer); test: ELONA, 150 nM aptamer; SPR also run, Kd not given; conditions: label: biotin
# CFP-10 (monomer) [8] = molecular target: T2, CFP-10 (monomer); test: SPR; CFP-10 immobilised on CM5 chip; conditions: label: biotin
# Method: as §1, §2
# CFP-10 (monomer) [9] = molecular target: T2, CFP-10 (monomer); test: SPR; CFP-10 immobilised on CM5 chip; also bound in ELONA; conditions: label: biotin; three predicted stem-loops
# Method: as §1, §2
binder,measurement,setting,value
CSIR 2.19 (ssDNA) DNA: GCCTGTTGTGAGCCTCCTAACTTCCAATAACGATACTTAAACCTGGTCTTTGCCAGTCAATGATAGCATCATGCTTATTCTTGTCTCCC,Kd,CFP-10 (monomer) [1],1.6 nM
same,binding result,ESAT-6 (monomer); two predicted stem-loops,no binding
same,binding result,[2]; two predicted stem-loops,no binding
CSIR 2.9 (ssDNA) DNA: GCCTGTTGTGAGCCTCCTAACTCCGGTCTTCAACATGTCCAATCGAACTTCGGCGGAAATCCTTTACCTGCATGCTTATTCTTGTCTCCC,binding result,CFP-10 (monomer) [3],binds
same,binding result,[4],binds
same,binding result,ESAT-6 (monomer),no binding
same,binding result,[2],no binding
"CSIR 2.19 truncated (77-mer) (ssDNA, [none (12 nt removed from the 3' end, parent positions 1-77)]) DNA: GCCTGTTGTGAGCCTCCTAACTTCCAATAACGATACTTAAACCTGGTCTTTGCCAGTCAATGATAGCATCATGCTTA",binding result,[5],binds
same,binding result,CFP-10 (monomer) [6],binds
CSIR 2.21 (ssDNA) DNA: GCCTGTTGTGAGCCTCCTAACACACACGTAGCGCCTTGTTGAAGTATACTCAAAGCATTCTCCACGCGGGCATGCTTATTCTTGTCTCCC,binding result,CFP-10 (monomer) [3],binds
same,binding result,[4],binds
same,binding result,ESAT-6 (monomer),no binding
same,binding result,[2],no binding
CSIR 2.15 (ssDNA) DNA: GCCTGTTGTGAGCCTCCTAACTAATGTGGATGCTGCATCGTTAGTATTTCTAGCATGCAATATAGGCATGCATGCTTATTCTTGTCTCCC,binding result,CFP-10 (monomer) [7],binds
same,binding result,[4],binds
same,binding result,ESAT-6 (monomer),no binding
same,binding result,[2],no binding
CSIR 2.2 (ssDNA) DNA: GCCTGTTGTGAGCCTCCTAACCCGTCTAACGAGATTGGGTCTTCATATGGCTCGAAGCGCGCGGTCAGTTCATGCTTATTCTTGTCTCCC,Kd,CFP-10 (monomer) [8],21.5 nM
same,binding result,ESAT-6 (monomer),no binding
same,binding result,[2],no binding
CSIR 2.11 (ssDNA) DNA: GCCTGTTGTGAGCCTCCTAACCCCATCTTATACGTATATGGACTCATCTCGACCCCCGATAGGCTTGGTACATGCTTATTCTTGTCTCCC,binding result,ESAT-6 (monomer); three predicted stem-loops,no binding
same,binding result,[2]; three predicted stem-loops,no binding
same,Kd,CFP-10 (monomer) [9],8 nM
